Here are results for 77 sequences from the supplement of paper PMC7877785.

± gives the uncertainty stated by the source.

The nature of the data set: self-splicing fitness, log relative to wild type (ln ratio); higher = more splicing; Tetrahymena group I intron in knt gene, E. coli kanamycin selection, DiMSum; sequences stand for … in CUCUCU…GGAGGGAAAAGUUAUCAGGCAUGCACCUGGUAGCUAGUCUUUAAACCAAUAGAUUGCAUCGGUUUAAAAGGCAAGACCGUCAAAUUGCGGGAAAGGGGUCAACAGCCGUUCAGUACCAAGUCUCAGGGGAAACUUUGAGAUGGCCUUGCAAAGGGUAUGGUAAUAAGCUGACGGACAUGGUCCUAACCACGCAGCCAAGUCCUAAGUCAACAGAUCUUCUGUUGAUAUGGAUGCAGUUCACAGACUAAAUGUCGGUCGGGGAAGAUGUAUUCUUCUCAUAAGAUAUAGUCGGACCUCUCCUUAAUGGGAGCUAGCGGAUGAAGUGAUGCAACACUGGAGCCGCUGGGAACUAAUUUGUAUGCGAAAGUAUAUUGAUUAGUUUUGGAGUACUCGUGGUCG
An outline of the steps: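 Library with all eight P1ex-region intron nucleotides randomised, intron inside the knt kanamycin-resistance gene on pET-22b(+), in E. coli BL21(DE3). Cells grew overnight at 37°C or 30°C on LB agar with or without 25 μg/mL kanamycin (plus 100 μg/mL carbenicillin, 50 μM IPTG, 0.2% rhamnose), in six replicate transformations. Pooled colonies were amplicon-sequenced on Illumina HiSeq 2500. DiMSum fitness is the error-weighted combination of wild-type-normalised replicate fold changes, kanamycin versus none.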

In the case of UGACAGCAAUAUUACGUAGC, the “self-splicing fitness (ln)” value is, setting by setting: (30 °C) -4.08 ± 0.29; (37 °C) -2.28 ± 0.28.
The matching figures for CAAGAGCAAUAUUACGGUUA: -2.21 ± 0.15 and -2.08 ± 0.18.
For the sequence CUUUAGCAAUAUUACGGCCA, under “37 °C”, the “self-splicing fitness (ln)” value was -0.666 ± 0.5.
For AGUAAGCAAUAUUACGCGUC, the “self-splicing fitness (ln)” value is, setting by setting: (30 °C) -3.37 ± 0.19; (37 °C) -2.2 ± 0.17.
As for CCCGAGCAAUAUUACGUUGA, the “self-splicing fitness (ln)” value runs as follows: (30 °C) -4.57 ± 0.32; (37 °C) -2.78 ± 0.2.
With GCAGAGCAAUAUUACGGGAG, the “self-splicing fitness (ln)” value is -2.81 ± 0.21 (30 °C) and -2.81 ± 0.32 (37 °C).
The matching figures for UCGCAGCAAUAUUACGGCCU: -0.665 ± 0.057 and 0.148 ± 0.076.
The matching figures for GACCAGCAAUAUUACGCGAA: -0.483 ± 0.059 and -0.138 ± 0.083.
On the same counts, the results for CGCGAGCAAUAUUACGGCGC are -2.93 ± 0.23 and -2.88 ± 0.31.
As for GUCAAGCAAUAUUACGUUUC, the “self-splicing fitness (ln)” value is -2.79 ± 0.13 (30 °C) and -2.39 ± 0.16 (37 °C).
The matching figures for GUAAAGCAAUAUUACGAAGA: -1.9 ± 0.1 and -1.03 ± 0.12.
The matching figures for CCCAAGCAAUAUUACGGACU: -3.92 ± 0.26 and -2.6 ± 0.18.
Regarding GGUAAGCAAUAUUACGAUGU, the “self-splicing fitness (ln)” value is -1.2 ± 0.061 (30 °C) and -0.805 ± 0.074 (37 °C).
On the same counts, the results for UGACAGCAAUAUUACGGCAU are -1.88 ± 0.073 and -0.478 ± 0.087.
On the same counts, the results for UCUCAGCAAUAUUACGGUAA are -2.11 ± 0.14 and -1.02 ± 0.12.
As for CCGGAGCAAUAUUACGAGCA, the “self-splicing fitness (ln)” value (37 °C) is -0.395 ± 0.25.
As to CGUCAGCAAUAUUACGGGGG, the “self-splicing fitness (ln)” value is -3.62 ± 0.2 (30 °C) and -2.05 ± 0.14 (37 °C).
The matching figures for GGACAGCAAUAUUACGGAUU: -1.33 ± 0.066 and 0.0211 ± 0.089.
On the same counts, the results for ACACAGCAAUAUUACGACAG are -1.62 ± 0.054 and -0.914 ± 0.077.
The matching figures for GGCCAGCAAUAUUACGCGGA: -1.17 ± 0.12 and -0.716 ± 0.1.
In the case of CAUUAGCAAUAUUACGCUGU, the “self-splicing fitness (ln)” value is, setting by setting: (30 °C) -2.72 ± 0.13; (37 °C) -2.21 ± 0.18.
As for GAGCAGCAAUAUUACGGACA, the “self-splicing fitness (ln)” value is -2.64 ± 0.15 (30 °C) and -1.53 ± 0.12 (37 °C).
With CUGAAGCAAUAUUACGCUGA, the “self-splicing fitness (ln)” value was -3.66 ± 0.24 (30 °C) and -3.28 ± 0.43 (37 °C).
In the case of CGCAAGCAAUAUUACGGUGU, the “self-splicing fitness (ln)” value (30 °C) was -3.42 ± 0.16 and the “self-splicing fitness (ln)” value (37 °C) is -3.25 ± 0.23.
The matching figures for UUAGAGCAAUAUUACGCAGU: -3.64 ± 0.32 and -3.17 ± 0.47.
For the sequence AUAGAGCAAUAUUACGUAAA, where the note is “37 °C”, the “self-splicing fitness (ln)” value is -1.57 ± 0.24.
Take CAUCAGCAAUAUUACGGUAA: the “self-splicing fitness (ln)” value by setting is: (30 °C) -2.64 ± 0.14; (37 °C) -1.09 ± 0.086.
On the same counts, the results for CAAUAGCAAUAUUACGCCGU are -3.47 ± 0.15 and -1.4 ± 0.14.
On the same counts, the results for UGCCAGCAAUAUUACGGUUG are -1.94 ± 0.096 and -0.692 ± 0.11.
On the same counts, the results for GCAAAGCAAUAUUACGAAAA are -1.98 ± 0.2 and -1.84 ± 0.24.
Regarding GUAAAGCAAUAUUACGUGUA, the “self-splicing fitness (ln)” value is, setting by setting: (30 °C) -1.44 ± 0.064; (37 °C) -0.702 ± 0.087.
On the same counts, the results for CUUCAGCAAUAUUACGUUGA are -3.08 ± 0.25 and -2.85 ± 0.24.
For the sequence UGUAAGCAAUAUUACGCCUG, the “self-splicing fitness (ln)” value is 0.084 ± 0.088 (30 °C) and -0.11 ± 0.1 (37 °C).
For the sequence AAGGAGCAAUAUUACGGCUC, the “self-splicing fitness (ln)” value by setting is: (30 °C) -4.14 ± 0.37; (37 °C) -2.77 ± 0.36.
The matching figures for CUAAAGCAAUAUUACGCCAA: -4.58 ± 0.32 and -3.1 ± 0.37.
On the same counts, the results for ACAAAGCAAUAUUACGCGAU are -2.75 ± 0.14 and -2.22 ± 0.16.
Turning to UCCAAGCAAUAUUACGACCG, the “self-splicing fitness (ln)” value (37 °C) is -1.38 ± 0.41.
On to CUAUAGCAAUAUUACGGUGA, for which the “self-splicing fitness (ln)” value is -3.35 ± 0.18 (30 °C) and -2.59 ± 0.23 (37 °C).
On the same counts, the results for GCCAAGCAAUAUUACGUAAA are -1.63 ± 0.1 and -0.72 ± 0.13.
The matching figures for AGUAAGCAAUAUUACGAAAU: -3.49 ± 0.21 and -2.18 ± 0.17.
For the sequence GCCUAGCAAUAUUACGGGUC, the “self-splicing fitness (ln)” value was -4.6 ± 0.36 (30 °C) and -2.89 ± 0.25 (37 °C).
On the same counts, the results for GUUGAGCAAUAUUACGCAGG are -3.35 ± 0.28 and -1.75 ± 0.37.
For GUGAAGCAAUAUUACGUCUU, the “self-splicing fitness (ln)” value was -1.6 ± 0.067 (30 °C) and -0.642 ± 0.078 (37 °C).
The matching figures for GGGAAGCAAUAUUACGAAGU: -2.43 ± 0.29 and -1.83 ± 0.35.
AUCUAGCAAUAUUACGCGUA: the “self-splicing fitness (ln)” value is, setting by setting: (30 °C) -0.86 ± 0.11; (37 °C) -0.721 ± 0.13.
On the same counts, the results for ACGCAGCAAUAUUACGUGAA are -2.62 ± 0.15 and -1.01 ± 0.13.
As to GCCUAGCAAUAUUACGAAUC, the “self-splicing fitness (ln)” value is -1.36 ± 0.066 (30 °C) and 0.0359 ± 0.086 (37 °C).
The matching figures for AACUAGCAAUAUUACGACUA: -0.192 ± 0.2 and -1.24 ± 0.15.
On the same counts, the results for UGACAGCAAUAUUACGAUGC are -3.94 ± 0.28 and -2.72 ± 0.28.
UAGAAGCAAUAUUACGUCAC: for the setting “30 °C”, the “self-splicing fitness (ln)” value was -2.92 ± 0.35.
Regarding AUUAAGCAAUAUUACGCCAA, the “self-splicing fitness (ln)” value (30 °C) is -0.955 ± 0.21 and the “self-splicing fitness (ln)” value (37 °C) is -1.59 ± 0.25.
The matching figures for CACAAGCAAUAUUACGGUGU: -3.86 ± 0.14 and -2.07 ± 0.14.
Turning to UGAUAGCAAUAUUACGGCCA, the “self-splicing fitness (ln)” value is -0.243 ± 0.14 (30 °C) and 0.424 ± 0.2 (37 °C).
On the same counts, the results for GUACAGCAAUAUUACGUAAU are -1.66 ± 0.087 and -0.807 ± 0.11.
On the same counts, the results for CAGGAGCAAUAUUACGGCAA are -4.26 ± 0.32 and -2.84 ± 0.33.
On the same counts, the results for CCUAAGCAAUAUUACGCAUU are -3.56 ± 0.29 and -2.2 ± 0.27.
Regarding AUUCAGCAAUAUUACGGCCG, the “self-splicing fitness (ln)” value reads like this: (30 °C) -1.09 ± 0.3; (37 °C) -0.945 ± 0.3.
Consider UCGAAGCAAUAUUACGCUUU, for which the “self-splicing fitness (ln)” value is -4.08 ± 0.3 (30 °C) and -2.94 ± 0.35 (37 °C).
The matching figures for UUAAAGCAAUAUUACGUUAG: -0.59 ± 0.095 and -0.125 ± 0.097.
On the same counts, the results for CCUCAGCAAUAUUACGUAAU are -4.03 ± 0.21 and -2.74 ± 0.22.
The matching figures for UGGUAGCAAUAUUACGCAUG: -1.33 ± 0.1 and 0.872 ± 0.14.
In the case of GUGCAGCAAUAUUACGAGAG, the “self-splicing fitness (ln)” value is -2.23 ± 0.15 (30 °C) and -2.42 ± 0.2 (37 °C).
On to UUAUAGCAAUAUUACGAAGU, for which the “self-splicing fitness (ln)” value is -3.61 ± 0.45 (30 °C) and -2.44 ± 0.28 (37 °C).
The matching figures for CAGGAGCAAUAUUACGAAGU: -4.19 ± 0.28 and -2.39 ± 0.37.
On the same counts, the results for ACGCAGCAAUAUUACGAUAU are -2.42 ± 0.096 and -1.02 ± 0.12.
The matching figures for AAUAAGCAAUAUUACGCGAU: -2.22 ± 0.23 and -2.98 ± 0.35.
Consider GAGCAGCAAUAUUACGGUUC, for which the “self-splicing fitness (ln)” value (30 °C) is -3.92 ± 0.42 and the “self-splicing fitness (ln)” value (37 °C) is -1.9 ± 0.38.
As to GGAAAGCAAUAUUACGGAUC, the “self-splicing fitness (ln)” value was -0.0161 ± 0.075 (30 °C) and 0.0803 ± 0.09 (37 °C).
The matching figures for AGAUAGCAAUAUUACGCAAU: -1.14 ± 0.1 and -1.34 ± 0.15.
On the same counts, the results for GCAUAGCAAUAUUACGUUGG are -3.88 ± 0.22 and -2.28 ± 0.18.
Turning to GAGAAGCAAUAUUACGGCUG, the “self-splicing fitness (ln)” value runs as follows: (30 °C) -0.733 ± 0.088; (37 °C) -0.161 ± 0.12.
On the same counts, the results for CACUAGCAAUAUUACGAUCC are -2.56 ± 0.33 and -1.91 ± 0.34.
For the sequence AAUGAGCAAUAUUACGAAAC, under “37 °C”, the “self-splicing fitness (ln)” value was -1.27 ± 0.32.
As for UGUUAGCAAUAUUACGUGCU, the “self-splicing fitness (ln)” value (30 °C) was -1.95 ± 0.13 and the “self-splicing fitness (ln)” value (37 °C) is -1.51 ± 0.13.
For the sequence CUAAAGCAAUAUUACGCAUC, the “self-splicing fitness (ln)” value (30 °C) was -4.03 ± 0.35.
In the case of CCGGAGCAAUAUUACGCCCA, the “self-splicing fitness (ln)” value (30 °C) is -3.21 ± 0.32 and the “self-splicing fitness (ln)” value (37 °C) was -2.06 ± 0.43.
Take CGCGAGCAAUAUUACGGUCU: the “self-splicing fitness (ln)” value reads like this: (30 °C) -3.82 ± 0.2; (37 °C) -0.953 ± 0.15.
